Experimental findings from patent US20160145333A1 (Amgen, published 2016) are described below.

Broadly, the Kd is the free concentration of one partner at which half of the binding sites on the other are occupied at equilibrium, for simple one-to-one binding.

Assay [1] deals with T1, Mouse CB1 receptor, wild type (mouse, UniProt P47746 1-473).
T1 construct: also called mCB1; V5-mCB1
Description: FACS on transfected cells.

The target in assay [2] is T2, Human CB1 receptor (cannabinoid receptor-1), wild type (human, UniProt P21554 1-472).
T2 construct: as PerkinElmer hCB1 membranes in the GTP-Eu assay; also called hCB1; huCB1
T2 sequence (P21554 whole entry): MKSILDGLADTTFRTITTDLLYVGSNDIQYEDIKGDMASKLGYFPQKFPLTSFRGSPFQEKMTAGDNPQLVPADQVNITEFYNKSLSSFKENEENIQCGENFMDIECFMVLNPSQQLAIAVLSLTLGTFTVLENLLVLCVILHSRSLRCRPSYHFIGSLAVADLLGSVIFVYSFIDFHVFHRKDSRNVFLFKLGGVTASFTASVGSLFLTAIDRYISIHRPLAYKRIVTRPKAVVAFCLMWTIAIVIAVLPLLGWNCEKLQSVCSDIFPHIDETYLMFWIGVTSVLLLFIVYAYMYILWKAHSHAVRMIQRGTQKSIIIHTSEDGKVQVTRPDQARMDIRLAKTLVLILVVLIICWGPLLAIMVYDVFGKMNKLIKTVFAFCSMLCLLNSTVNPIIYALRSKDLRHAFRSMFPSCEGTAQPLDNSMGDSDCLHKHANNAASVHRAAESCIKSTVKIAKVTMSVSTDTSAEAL
The assay is described as follows: method not given.

In assay [3] the target is T2, Human CB1 receptor (cannabinoid …). Description: cell-based or functional assay.

T1 sequence (P47746 whole entry): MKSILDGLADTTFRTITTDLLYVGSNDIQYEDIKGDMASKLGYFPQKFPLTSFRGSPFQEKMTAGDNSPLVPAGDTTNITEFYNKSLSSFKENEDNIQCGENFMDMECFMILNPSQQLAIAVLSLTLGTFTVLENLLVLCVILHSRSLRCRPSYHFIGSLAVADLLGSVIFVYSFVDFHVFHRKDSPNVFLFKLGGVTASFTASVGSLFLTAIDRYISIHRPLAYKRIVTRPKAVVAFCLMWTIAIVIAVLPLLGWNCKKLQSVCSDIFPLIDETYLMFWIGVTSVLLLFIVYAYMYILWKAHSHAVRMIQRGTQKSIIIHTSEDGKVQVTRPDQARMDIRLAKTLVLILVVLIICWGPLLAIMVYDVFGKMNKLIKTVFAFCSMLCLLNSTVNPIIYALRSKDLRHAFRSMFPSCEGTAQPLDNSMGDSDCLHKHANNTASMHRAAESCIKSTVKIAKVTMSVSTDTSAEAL

B1: CB1 antibody 10D10 (antibody, human IgG2, kappa, V domains shown)
VH: QVQLQESGPGLVKPSQTLSLTCTVSGGSIRRGGDYWSWIRQHPGKGLEWIGYIYYSGSTNYNPSLKSRATISVDTSKNQFSLKLSSVTAADTAVYYCARDYDILTGYSYYYYGMDVWGQGTTVTVSS
VL: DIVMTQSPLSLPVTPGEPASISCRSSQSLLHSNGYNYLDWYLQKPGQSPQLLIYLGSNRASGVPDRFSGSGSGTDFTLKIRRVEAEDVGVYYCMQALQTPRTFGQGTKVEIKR
notes: Xenomouse (human) antibody; also called wild-type 10D10; WT HC / WT LC
In the case of B1, the binding result in assay [1] is listed as “no binding”. In assay [2], this molecule showed a Kd of under 200 nM. Also, the “IC50, GTP-Eu assay against anandamide” value in assay [3] is 10.1 nM.
